Data: patent US20100092481A1

Tests used:
[1] = target: T1, hCMV gH protein, full length, expressed in HEK293T cells (human cytomegalovirus), P12824; experiment: cell cross-competition, 20x excess; competitor 3G16-biotin; conditions: remark: other sources report otherwise
[2] = target: T1, hCMV gH protein, full length, expressed …; experiment: cell cross-competition, 20x excess; competitor 11B12-biotin; conditions: remark: other sources report otherwise
[3] = target: T1, hCMV gH protein, full length, expressed …; experiment: cell cross-competition, 20x excess; competitor 13H11-biotin; conditions: remark: other sources report otherwise
[4] = target: gB 69-78 peptide (human cytomegalovirus) (UniProt P06473); experiment: ELISA on peptide

Binder | Inhibition of binding (%) [1] | Inhibition of binding (%) [2] | Inhibition of binding (%) [3] | EC50 [4]
11B12 (antibody, V domains shown) VH: QMQLVQSGPQVKKPGTSVKVSCKASGFTFTSSAMQWVRQARGQRPEWIGWIVLGSGNTNYAQKFQERVTLTRDMSTATAYMELSSLRSEDTAVYYCAADRGRGGYNVYTYWGQGTLVAVSS VL: EIVMTQSPGTLSLSPGERATLSCRASQTISNTYVAWYQQKPGQAPRLLIYGASSRATGIPDRFSGSGSGTDFTLTIRRLEPEDFAVYYCQQNGQSPWTFGQGTNVEIK | 0% | 100% | 100% | –
3G16 (antibody, V domains shown) VH: RAQLVQSAAEMKNPGASVKVSCEASGYTFTGYYVHWMRQAPGQGLEWMGWINPMTGATKSPQKFQGRVTMTRDTSTTATHIELTRLRSDDSAVFFCARGGPTSTRITGKRHFDLWGRGTLITVAS VL: QSALTQPASVSGSPGESITISCTGTISDVGAYNSVSWYQQHSGTAPELIIYDVTNRPAGVSSRFSGSKSGNTASLTISWLQSEDEAEYYCSSYTTSDTYVFGSGTQVTVL | 100% | 0% | 0% | –
6B4 (antibody, V domains shown) VH: QVQLVESGGGVVQPGRSLRLSCAASGFRFNEFNMHWVRQAPGKGLEWVAVISIDGRHKYNADSVEGRFTISRDNSRNTLYLQMNSLRVEDTALYYCVTDGKAVDGFSGILEFWGQGTPVTVST VL: EIVLTQSPATLSLSPGERATLSCWASQSVGGYLAWYQQKPGQAPRLLIYDASIRATGIPARFSGSGSGTHFTLTINSLEPEDFAVYYCQQRNNWPPLTFGGGTKVEIK | – | – | – | 0.044 µg/mL
13H11 (antibody, V domains shown) VH: QVQLVQSGAEVKKPGASVKVSCKASGYTFTNYYIHWVRQAPGQGLEWMGIIHPSSGGTSYAQKFQGRVTMTRDTSTSTVSMDLSSLRSEDTAVYYCGRAFRILGLSDVFVNDWGQGTVVTVSS VL: DIQMTQSPSSLSASVGDRVTITCRASQGINNYLAWYQQKPGKVPKLLIYAASTLQSGVPSRFSGSGSGTAFTLTILSLQPEDVATYYCQKYNSAPFTFGPGTKVDIK | 0% | 100% | 100% | –
